In article PMC8949286, “A New Strategy for As(V) Biosensing Based on the Inhibition of the Phosphatase Activity of the Arsenate Reductase from Thermus thermophilus” (International Journal of Molecular Sciences, 2022):

T1: TtArsC (Thermus thermophilus, UniProt Q72HI5)
T1 construct: gene TT_C1502; recombinant, pET30/TtarsC in E. coli BL21-CodonPlus(DE3)-RIL; thermo-precipitation, anion exchange (Resource Q), gel filtration (Superdex S75); no tag mentioned
T1 sequence (Q72HI5 1-150): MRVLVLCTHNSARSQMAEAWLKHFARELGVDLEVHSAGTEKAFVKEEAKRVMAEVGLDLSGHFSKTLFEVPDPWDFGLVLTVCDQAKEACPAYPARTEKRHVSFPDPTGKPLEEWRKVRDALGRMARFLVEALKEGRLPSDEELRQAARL

B1: TtArsC (Thermus thermophilus HB27) (protein)
chain: MRVLVLCTHNSARSQMAEAWLKHFARELGVDLEVHSAGTEKAFVKEEAKRVMAEVGLDLSGHFSKTLFEVPDPWDFGLVLTVCDQAKEACPAYPARTEKRHVSFPDPTGKPLEEWRKVRDALGRMARFLVEALKEGRLPSDEELRQAARL
notes: recombinant, pET30/TtarsC in E. coli BL21-CodonPlus(DE3)-RIL; thermo-precipitation, anion exchange (Resource Q), gel filtration (Superdex S75); no tag mentioned

Tests used:
TtArsC = target: T1, TtArsC; assay: biochemical
purified protein = substrate: O=[N+]([O-])c1ccc(OP(=O)(O)O)cc1; assay: purified protein; type: biochemical, Thermus thermophilus; settings: no inhibitor, 4 µM enzyme, 20 mM Tris-HCl pH 7, 60 °C

| Molecule | Ki (TtArsC) | Km (purified protein) | Vmax (purified protein) | kcat (purified protein) |
| --- | --- | --- | --- | --- |
| O=[As]O [As(III)] | 394 ± 40.3 µM | – | – | – |
| B1 | – | 9.57 ± 1.95 mM | 0.0193 µmol/min/mg | 0.005 s⁻¹ |
